Laboratory results reported in patent US20130344070A1.

Molecular target: human CCR2 (CC-Chemokine Receptor 2) (human) (UniProt P41597)
Test: cell-based or functional assay

Chain of human CCR2 (CC-Chemokine Receptor 2) (human) (P41597 whole entry): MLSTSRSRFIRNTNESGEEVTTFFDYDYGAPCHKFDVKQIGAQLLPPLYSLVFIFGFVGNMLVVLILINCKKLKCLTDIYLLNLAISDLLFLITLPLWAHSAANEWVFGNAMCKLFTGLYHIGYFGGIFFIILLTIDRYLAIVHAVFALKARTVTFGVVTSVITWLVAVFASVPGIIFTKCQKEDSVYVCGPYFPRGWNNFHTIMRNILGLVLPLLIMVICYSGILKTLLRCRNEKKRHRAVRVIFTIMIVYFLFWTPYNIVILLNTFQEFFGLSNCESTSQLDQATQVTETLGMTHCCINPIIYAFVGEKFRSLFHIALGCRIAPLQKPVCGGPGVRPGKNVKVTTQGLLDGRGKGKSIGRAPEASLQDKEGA

IC50 in calcium flux assay using human THP-1 cells, ligand MCP-1 (2.5 nM): 0.25 nM | IC50 in calcium flux assay using human THP-1 cells, ligand MCP-3 (22 nM): 0.11 nM | IC50 in calcium flux assay using human THP-1 cells, ligand MCP-5 (0.43 nM): 0.18 nM | IC50 in chemotaxis assay using human THP-1 cells, ligand MCP-1 (3 nM): 0.31 nM | IC50 in chemotaxis assay using human THP-1 cells, ligand MCP-2 (6.7 nM): 0.46 nM | IC50 in chemotaxis assay using human THP-1 cells, ligand MCP-3 (1.1 nM): 1.83 nM | IC50 in chemotaxis assay using human THP-1 cells, ligand MCP-4 (35 nM): 0.84 nM | IC50 in chemotaxis assay using human THP-1 cells, ligand MCP-5 (0.65 nM): 0.37 nM | IC50 on MCP-1 induced THP-1 cell migration: 0.309 nM | IC50 on MCP-2 induced THP-1 cell migration: 0.459 nM | IC50 on MCP-3 induced THP-1 cell migration: 1.83 nM | IC50 on MCP-4 induced THP-1 cell migration: 0.843 nM | IC50 on mouse MCP-5 induced THP-1 cell migration: 0.368 nM
B1: MLN1202 (Takeda) (antibody, INN chains, looked up, V domains shown)
VH: EVQLVESGGGLVKPGGSLRLSCAASGFTFSAYAMNWVRQAPGKGLEWVGRIRTKNNNYATYYADSVKDRFTISRDDSKNTLYLQMNSLKTEDTAVYYCTTFYGNGVWGQGTLVTVSS
VL: DVVMTQSPLSLPVTLGQPASISCKSSQSLLDSDGKTFLNWFQQRPGQSPRRLIYLVSKLDSGVPDRFSGSGSGTDFTLKISRVEAEDVGVYYCWQGTHFPYTFGQGTRLEIK
